According to the NTF2 design screens of Basanta et al. (2020):

Assay: protease stability score; higher = more stable; yeast display proteolysis, trypsin and chymotrypsin;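 note: relative to predicted unfolded state with 0 unfolded-like and 1 meaning tenfold more protease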

| Sequence | protease stability score |
| --- | --- |
| DEEEELAKEMLERFNKSLHTGDEESIERLLDPDVRVIFNGKDLIGRETVADFLKEWRMSVHTFEIRRFHSQGEKMHLDGHTEIKIHFNGKTVHLNHRVEHHMHKVNGRWTIHSIQFL | 1.18 |
| DEEEELARKSLEVWLKSSQTGDENHLEHMFDPNARLNIDGVELIGREHAKIWAKELRIHDIYPRRLRIQGNKLFLDLESDEEYNGKRTHFRRHLVMLKVNGVWIIESMHVE | 1.43 |
| DEEEELARKYTEIYRHFMHTGDEDLNREFADPNTQILQGNKRFHGWKWYLEIVRRLGADHMEIHRVDVQGDKVHNDGRMIVNGKTLHFELIITKIDGRWVLREVRLG | 1.4 |
| DEEEELARRASRKLIELMLTGDEDSLEEMLDPNVKVQIGDKELHGRIAIEIMSRQFKNVRIEVKRLSVQGNYVDLDVRVNINGVWVEQRIQIEKVDGRWTLKENTIV | 2.23 |
| DEEEELIKHHLELHLEAVKTGDEEHLHRNMDPNVRLHVNGQDRHGREDVSTLLREIRLKDFKIHDVDIQGNKMRFDGFILGEINGREHNVHTTIYAEKVDGRWLIRHFEIR | 1.04 |
| DEEEELLKDLLRKWLEAMRTGDWEELERLLDPHVRIHIGDKDIHGRELFIELHERELKRIKNVKIVIDDKHIEFQGDKARVDGKLQEQVGDKEITHRVIIIMRVIDGKFESMEVRYV | 1.08 |
| DEEEELLRKLVEELHKALRTGNEHVLRHLIDPHVRIDIDGRELHGREQFVELWKRLVDELRIHDMKIRSIKTQGDFVHSSTELDLEYGDKKFRLTTELDVRSIDGRVKHVSIRYH | 1.53 |
| DEEEELLRRLIKMLLHLMRTGDEDETANLLDPNVRIEWNGRTFHGREEAKRWLFELLSRVDVVKDIKIHDYDRYGDFVLLDVRLHGEIDGVPTETIFIIIIRKINGRWMIHQIYLE | 1.42 |
| DEEEELLRRMLHLLYHFLKTGDEDTLSRLMDPNYLLIIGDKEHHGREEYRKVMKRADVLEIMHIHDVHFQGDKIHIDGHSRWRVGDKMHETRIEIIAVKFNGRWHFHSIIVR | 0.804 |
| DEEEELLTRTSELFSHNLHTGDEDSLIHLADPHTRIDVDGVQLHGMETWSEQFSRDMHEHGARSEVHYKRREVVGDKAKIHLVLTITYNGRTIIRNIELRMTKIDGVWILRHISYH | 1.26 |
| DEEEELMHRLVELFLKALITGDEETLSHLADPNVRLHIDGRHIHGWQFSVKEWLRESSEIRMELQIRHIHLIGDKVHVHGQLSIHQGNKHIHREVIYDFVIINGRLKSITVEIT | 1.99 |
| DEEEELMRSFLRLWFEAMITGDEHTLKELIDPDVRIEQGDKTHHGWEEFLRKFHKIKNMTIRHVELNHEHVQGDKIDLIITLHGHINGRHEELEVRLHARKVDGRWKMTRIHYQ | 2.66 |
| DEEEELNREALKEFHDDMKTGDERHILENLDPNTRIQFNGRDLHGRENAERFIRELIQKYGATVFNMKRVEVQGDWLHIDGELVIGDKKHRIHIIAVKINGRWTDTELRIK | 1.48 |
| DEEEELNRRLVELMIRWHETGDFDMIEKYMDPDAKLNINGQEIHGMEKITNLFLWRFEFFKGAQYRMNRVRVQGDKASIDGRLNVDGRTHSIEIRIVIINGRNHSIEIHDR | 1.41 |
| DEEEELREESEKFEHRAWETGDWKLLAELMDPHTRFITEDHDFHGRENMEKLLEDDLRRIKNATIRSIIIRRTHEINGRLLLIGIVDVEIDGKRVIRDVKYIKVKINGRWYITTMQVR | 0.796 |
| DEEEELSKIAIRIFLKTLETGDERTLSELMDPHARLVINGREYHGREEASKEWHKWVEHLRVRDIKISSVRINEHELILHEKFEVEVNGRNLKLDVLIIVVKVDGRWVLRTNTIN | 2.68 |
| DEEEELSKIAYHLTEHIWETGDEDLLKELLDPNTQVTQGEWHVHGRESMHRFLRHVRERLGVDQIDVDVKSVRAFNGVVTTHVNLHFNGRTYTMTLFSNKYNGKWTVKSMKIQ | 1.29 |
| DEEEELSKRLVELLLKLLKTGNEEELIKNADPHAKVQIRINGREFIHHGWEAFSHLWRHYIIKFKNIRIHDRHMEIQGDWVHIHSEEQIGDKRIEVEIRIQIINGVQKNVHIDIHEH | 1.47 |

| Sequence | protease stability score |
| --- | --- |
| DEEEELSTEVMEHVLELVLTGDEERLWKLFDPHVRLDIDGKHIIGRELVSKINKDRRRELRIHHVELKRFETQGEKVHSDIRVDGWIDGRRIDTDAHVIVVVVDGRLKSLRIIHH | 1.18 |
| DEEEELTKRFLDIMLHNLKTGNEEEISKMADPNVKLDIGDKENHGRESMSRAWHEELRRLGAKHIDVRSVELQGDKLIIRMRLEVDGRTFEVLIIIIVVDGRLKHIQFKSH | 0.704 |
| DEEEELTKRWIDHLLRLWNTGDEHHFLKMADPHVRIEQGDKEHIGREEMYRWLQQFKNIRLHIDDIDIQGDFLNIDGYINFNGVHREAKVHIRVINGKLHSIIIRIK | 1.3 |
| DEEEELTRLALEWLLKVSKTGDERLFREEFDPNVKLDINGRDFHGREEAVRVWLKFVHDAGFKHIEIERVLSFDGRLHLHGVEHIGDKEVETHILTEKFDGKWVMRSIKIN | 0.301 |
| DEEEELVIHVAHEILHNHLTGDEERWEELADPRTKVEFNGVQNHGREFTNEYRKEFHNRYDHWEIRIRDYRVIDGVAHFDTELIIRQGDKEIRVKVHLEFIIVNGKVSEIRIEVR | 0.607 |
| DEEEELVLRIMHELLKLVLTGDFKRLSELLDPNVRMEIVVGDKHIEEHGRERMSHWILEWLRHARVKEFRIHHLIAYDGQTDSNVRLNVRIGDKEHRFRVIVILQVIDGKIRSLTIIFE | 1.51 |
| DEEEELVREFLHRLKQSHETGDEKMYRENADPDVRIEVNGVTIHGMERATRWASEMRFKHEELRHIEVDENHVHIDGIVKGRINGRDVETKVHFHVRKVNGVWLLKRIKFT | 0.956 |
| DEEEELVRLATEHSLELMRTGDWSHLHKLMDPHALLSVNGREVHGRENAVRLIITILEDLGVKHFHLEHVEVIDGRVNIDGRLHQGDKKLNNEIWLVKINGRWRLKSIHIELK | 1.17 |
| DEEEELWKELSKLIIHEWRTGDEEIFARLFDPNAKMRHLVDGRDDQHVGREKTVHVLLKVLEDLGIKHIKHEHITIQGDWVHMHTTLNVDGREIKVEMHFVVINGKYKSVEERTK | 0.966 |
| DEEEELYRIALEESIRTLKTGDEDRVHELFDPRARIIVNGREFHGRERATKWAFDWIHKVKNMRFELRDFRIQGDKIIIHGKLHVNGQETEIIIIIHKIDGRWLIEQVEVR | 1.4 |
| DEEEEMAHRLVEQHDEFIRTGDERINHELADPHAKVEIGDKEFIGRETFSKLMVEWRTREIRLTHIEVINGQVHLYQDVRVDYNGKEMHQHVRWDSLKINGKWFDHSVHIK | 0.317 |
| DEEEEMAKKILDDLTHLLETGDEEVFRHLADPNVKVDELVNGRKIHRHGRQDWREIFKEMRLRHIHIRRVHVQGDKLHNDIEVDGDFNGRSHRDRTELILVIVDGRLRTIEIHVN | 1.18 |
| DEEEEMIEKIFKHLVEALRTGDWRQLEKLFDPNVRIEIGDKHSVGREEAVKFLEEWRKRADHIEHIDFRNRRSVDGRIEIEGRHLGHIDGRLVNTRVEFEIVIVDGKIEYNRLHVL | 1.58 |
| DEEEEMRRRQTTLFLEAWITGDWDLIQRLLDPHTRVDVNGVEIHGMEEFARWFREKKEKVKNLRSHLTDIELQGEKVILYGIDTVNGKTHKVRVKVDIVDGVIKEVRFDLR | 1.4 |
| DEEEEMSKEATEWFKRVSKTGDEKDLVEFLDPNVLLEIGDKRFHGREVASHWMTRMFHEIRIRHIEEKEFRIYNGRATLHEHLDIEFDGRTSKIHVTVVYIKVNGRWFMESLHIR | 0.808 |
| DEEEEMSKELAELLVKAFVTGDWEEMTSMADPRTRTDVNGKDLHGWDESLRVIEELLRKMGIKHSNIHTVRVQGNWIHIDIRVIVGDKYHEVEIRVLVVNGRLKYLEYRIK | 1.98 |
| DEEEEMVLEMAYLFIHALHTGDEDMIRHLADPNMKVDINGQEHHGRDMSNEWWRREIDQIKNVRVDIDIDELHVIDGVAYVRTTVRYHFDGRTIVYFTTFDLIIVNGKIKSVKWEVE | 1.83 |
| DEEEEMVREVLHRVIHNILTGDEDSVSRMADPHVRVKEIINGKEFTLHGREMMLHMIREWRNRADHVEIHIRRSRVINGRLDSHGLLIIEINGKEIRHDTNLHLYVVDGVIKILTWNIE | 1.45 |
